B1: EEHEE_rd4_0363 (parent)
chain: VTVDIKGMEYHFDNPEEAKKFAERMAKELGGELKVENGTLKVE

Variants of: B1
Test: folding stability dG (cDNA display proteolysis); higher = more stable
Settings: PBS, room temperature

Folding stability dG [kcal/mol], by site and new letter:
M8: E 1.63 | P -0.136 | D 1.24 | C 2.23 | N 1.58 | K 2.44 | H 1.99 | G 0.564 | W 1.78 | Y 2.06 | S 1.55 | V 2.52 | I 2.46 | T 2.26 | R 2.41 | F 2.11 | Q 2.05 | L 1.93 | A 1.54
N14: F 0.914 | L 1.02 | D 2.33 | I 0.929 | C 1.81 | A 0.941 | Q 0.996 | S 2.11 | R 1.15 | V 0.902 | K 1.08 | H 1.3 | T 2.07 | M 0.77 | E 1.18 | G 1.08
E9: A 1.99 | P 1.47 | K 3.05 | F 2.66 | Y 2.6 | S 2.32 | V 2.93 | C 3.28 | W 2.25 | G 1.26 | D 0.904 | R 2.9 | H 2.51 | Q 2.69 | N 1.71 | I 3.25 | L 3.44 | M 2.92 | T 2.55
D13: A 1.95 | V 1.64 | C 2.42 | Q 1.73 | Y 1.22 | K 1.82 | G 1.51 | I 1.68 | R 1.74 | N 1.88 | T 1.93 | W 1.58 | M 1.68 | F 1.41 | S 2 | L 1.68 | H 1.58 | P 1.6 | E 1.9
H11: E 0.894 | Q 1.39 | M 1.54 | F 2.13 | Y 2.36 | A 1.16 | I 1.77 | P 0.291 | V 1.84 | G 0.524 | N 1.32 | S 1.33 | K 1.73 | D 0.422 | L 1.55 | C 2.21 | R 1.87 | T 1.77 | W 2.26
F12: I -0.023 | A -0.113 | W 0.074 | M 0.11 | K -0.237 | Q -0.27 | H -0.13 | N -0.908 | Y 0.382 | T -0.58 | V -0.424 | R -0.751 | G -0.303 | S -0.396 | P -0.958 | L 0.213 | C 1.66 | E -0.877
K6: A 2.53 | Y 2.87 | H 2.74 | S 2.31 | E 2.26 | G 2.68 | D 2.92 | V 1.81 | M 3.32 | P 0.366 | T 1.5 | N 2.84 | C 3.13 | Q 2.34 | L 2.96 | I 1.81 | R 2.17 | F 3.4 | W 2.62
Y10: S -0.033 | W 1.56 | H 0.908 | K 0.191 | E -0.466 | D -0.462 | T 0.289 | M 0.781 | A 0.161 | C 1.77 | V 0.768 | G -0.912 | N -0.275 | L 0.741 | P -0.055 | Q 0.239 | R 0.383 | I 1.05 | F 1.99
G7: R 0.237 | C 1.72 | P 0.309 | F 0.855 | T 0.445 | S 0.507 | N 0.745 | I 0.499 | D 0.499 | E 0.306 | M 0.304 | W 0.811 | K 0.294 | L 0.238 | Y 0.918 | H 0.716 | V 0.407 | Q 0.441 | A 0.278
